These are literature values, as cited in article PMC10772121.

The target in data set [1] is KIR2DL2 (Homo sapiens) (UniProt P43627). The data set is described as follows: ELISA. On the technique in general: ELISA stands for enzyme-linked immunosorbent assay.
The target of data set [2] is KIR2DS4 (Homo sapiens) (UniProt P43632). The data set is described as follows: ELISA.
Sequence of KIR2DS4 (Homo sapiens) (P43632 22-245): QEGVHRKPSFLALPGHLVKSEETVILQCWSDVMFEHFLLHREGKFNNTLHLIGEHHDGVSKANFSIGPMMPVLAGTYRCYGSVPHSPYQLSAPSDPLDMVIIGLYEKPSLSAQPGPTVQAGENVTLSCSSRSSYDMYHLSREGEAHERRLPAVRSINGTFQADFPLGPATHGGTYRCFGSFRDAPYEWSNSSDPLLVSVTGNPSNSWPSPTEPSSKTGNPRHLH

Sequence of KIR2DL2 (Homo sapiens) (P43627 22-245): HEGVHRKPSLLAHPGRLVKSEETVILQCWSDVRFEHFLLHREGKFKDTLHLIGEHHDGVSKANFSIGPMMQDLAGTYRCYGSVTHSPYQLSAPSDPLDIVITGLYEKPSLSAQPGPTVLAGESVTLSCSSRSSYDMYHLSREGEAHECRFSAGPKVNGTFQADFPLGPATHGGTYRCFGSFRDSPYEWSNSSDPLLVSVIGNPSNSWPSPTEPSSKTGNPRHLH

With Lirilumab, the Kd (as a rule, the concentration at which binding is half-saturated) in data set [1] was 0.06 nM; in data set [2], 20 nM.
